Target: recombinant Myodes glareolus IFN-γ (recMgIFN-γ) (Myodes glareolus (bank vole))
Assay: SEC; analytical gel filtration of 200 µl purified recMgIFN-γ in PBS at room temperature on a calibrated Superdex 75 10/300 GL column, flow rate 0.75 ml/min; detection at 230 and 260 nm

stoichiometry N: 2
Substance: recombinant Myodes glareolus IFN-γ (recMgIFN-γ) (natural protein)
